According to PMC7515705:

Molecular target: T1, YBEY-3 × FLAG (human), P58557
T1 chain: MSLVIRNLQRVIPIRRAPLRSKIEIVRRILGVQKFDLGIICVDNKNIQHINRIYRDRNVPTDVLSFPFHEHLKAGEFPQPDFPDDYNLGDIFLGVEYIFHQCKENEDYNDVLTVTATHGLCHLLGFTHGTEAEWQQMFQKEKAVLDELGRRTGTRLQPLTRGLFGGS
Experiment: affinity purification with mass spectrometry; α-FLAG antibody and protein A-sepharose on mitochondrial lysates (0.5% n-dodecyl-β-D-maltoside, 20 mM Tris-HCl pH 7.5, 150 mM KCl, 4°C) of SAL001 cells expressing YBEY-3 × FLAG; parental Flp-In T-REx 293 as control; LC-MS/MS, spectral counts; YBEY:p32 stoichiometry from spectral abundance factors
Conditions: remark: other sources report otherwise

- stoichiometry N: 1
B1: p32/C1QBP, endogenous, Q07021 74-282 (natural protein)
chain: LHTDGDKAFVDFLSDEIKEERKIQKHKTLPKMSGGWELELNGTEAKLVRKVAGEKITVTFNINNSIPPTFDGEEEPSQGQKVEEQEPELTSTPNFVVEVIKNDDGKKALVLDCHYPEDEVGQEDEAESDIFSIREVSFQSTGESEWKDTNYTLNTDSLDWALYDHLMDFLADRGVDNTFADELVELSTALEHQEYITFLEDLKSFVKSQ
